The target in test [1] is CD40 expressed on Ramos [ATCC] cells (UniProt P25942). Briefly: flow cytometry (FACS) on Ramos cells expressing CD40, negative control at 2 ug/ml, FIG. 3. Background: Flow cytometry measures light scatter and fluorescence of single cells or particles in a stream.
The target is the same in test [2]. Briefly: flow cytometry (FACS) on Ramos cells expressing CD40, negative control at 2 ug/ml, FIG. 1C.
For test [3] the target is unchanged. Nature of the test: flow cytometry (FACS) on Ramos cells expressing CD40, negative control at 2 ug/ml, FIG. 1A.
For test [4] the target is unchanged. Nature of the test: flow cytometry (FACS) on Ramos cells expressing CD40, negative control at 2 ug/ml, FIG. 1B.
Test [5] shares this target. Briefly: cell-based or functional assay.

CD40 expressed on Ramos [ATCC] cells, sequence (P25942 21-277 limits assumed): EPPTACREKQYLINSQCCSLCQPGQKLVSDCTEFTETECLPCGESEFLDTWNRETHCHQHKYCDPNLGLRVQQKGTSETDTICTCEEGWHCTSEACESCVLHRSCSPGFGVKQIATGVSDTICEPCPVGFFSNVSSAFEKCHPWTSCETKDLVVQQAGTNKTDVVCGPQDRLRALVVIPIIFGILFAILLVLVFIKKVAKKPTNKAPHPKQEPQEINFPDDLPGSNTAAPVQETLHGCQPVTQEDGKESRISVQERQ

In test [1], “human IgG1 antibody against human serum albumin” gave an average fluorescence intensity (average fluorescence intensity) of 5.01. The average fluorescence intensity (average fluorescence intensity) in test [2] came out at 5.01. Moreover, the average fluorescence intensity (average fluorescence intensity) in test [3] is 7.15. The same substance registered an average fluorescence intensity (average fluorescence intensity) in test [4] of 7.15. In test [5], the CD95 expression level in Ramos cells stimulated with soluble CD40 ligand, isotype control of FIG. 4 (average fluorescence intensity) amounted to 27.2; the CD95 expression level in Ramos cells, isotype control of FIG. 2A (average fluorescence intensity) came to 7.58; the CD95 expression level in Ramos cells, isotype control of FIG. 2B (average fluorescence intensity) was determined as 7.58; the CD95 expression level in Ramos cells, isotype control of FIG. 2C (average fluorescence intensity) stood at 6.29.

The record behind these values is patent publication US20080138335A1.
